# Measurements taken from US20230142800A1 (COMMISSARIAT A L ENERGIE ATOMIQUE ET AUX ENERGIES …, published 2023).
# Target: T1, biotinylated TNF alpha (human (definition in paragraph 32)); the …, UniProt P01375 77-233, biotinylated (site not stated))
# T1 construct: Used for FACS sorting of yeast libraries and immobilised on streptavidin sensors for BLI; also called TNFα; Tumor Necrosis Factor Alpha
# Assay: yeast display MACS and FACS sorting on biotinylated TNF alpha, NGS enrichment, CDRH3 library
# From the text: The second selection phase consists of selecting the mutant by the dissociation speed thereof.
# The selection of DMS libraries was done in a single step by FACS on an ARIA III device (Becton Dickinson, Franklin Lakes, United States). […] After washing the cells with PBS 0.1% BSA, they were marked by using an APC coupled antibody directed against the OK domain (Thermo Fisher Scientific, Waltham, United States; dilution 1:100) and a PE coupled streptavidin (Thermo Fisher Scientific, Waltham, United States; dilution 1:100). The selection of libraries was done by means of rectangular sorting window containing 5% of the clones of interest according to the optimal parameters described by Kowalski et al. PLoS One 10, 1-23 (2015)). The selection of de-immunization libraries was done in several steps. […] The libraries underwent different steps of sorting by FACS.
# T1 sequence (P01375 77-233 limits assumed): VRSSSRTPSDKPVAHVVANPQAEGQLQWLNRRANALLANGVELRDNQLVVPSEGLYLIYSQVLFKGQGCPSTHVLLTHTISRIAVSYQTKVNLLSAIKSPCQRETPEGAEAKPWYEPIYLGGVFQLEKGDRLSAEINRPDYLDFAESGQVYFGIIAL
row,Enrichment,Binder
1,65400,"CDRH3 library mutant LYYCAKTKYLPS (Fab, V domains shown) VH: EVQLVESGGGLVQPGRSLRLSCAASGFTFDDYAMHWVRQAPGKGLEWVSAITWNSGHIDYADSVEGRFTISRDNAKNSLYLQMNSLRAEDTALYYCAKTKYLPSASSLDYWGQGTLVTVSS VL: not shown"
2,1.29e+06,"CDRH3 library mutant VYYCAKTTYLPT (Fab, V domains shown) VH: EVQLVESGGGLVQPGRSLRLSCAASGFTFDDYAMHWVRQAPGKGLEWVSAITWNSGHIDYADSVEGRFTISRDNAKNSLYLQMNSLRAEDTAVYYCAKTTYLPTASSLDYWGQGTLVTVSS VL: not shown"
3,110000,"CDRH3 library mutant LYYCAKVKYTPT (Fab, V domains shown) VH: EVQLVESGGGLVQPGRSLRLSCAASGFTFDDYAMHWVRQAPGKGLEWVSAITWNSGHIDYADSVEGRFTISRDNAKNSLYLQMNSLRAEDTALYYCAKVKYTPTASSLDYWGQGTLVTVSS VL: not shown"
4,163000,"CDRH3 library mutant VYYCAKAKYLPT (Fab, V domains shown) VH: EVQLVESGGGLVQPGRSLRLSCAASGFTFDDYAMHWVRQAPGKGLEWVSAITWNSGHIDYADSVEGRFTISRDNAKNSLYLQMNSLRAEDTAVYYCAKAKYLPTASSLDYWGQGTLVTVSS VL: not shown"
5,188000,"CDRH3 library mutant LYYCAKVKYLPS (Fab, V domains shown) VH: EVQLVESGGGLVQPGRSLRLSCAASGFTFDDYAMHWVRQAPGKGLEWVSAITWNSGHIDYADSVEGRFTISRDNAKNSLYLQMNSLRAEDTALYYCAKVKYLPSASSLDYWGQGTLVTVSS VL: not shown"
6,80800,"CDRH3 library mutant VYYCAKTRYTPT (Fab, V domains shown) VH: EVQLVESGGGLVQPGRSLRLSCAASGFTFDDYAMHWVRQAPGKGLEWVSAITWNSGHIDYADSVEGRFTISRDNAKNSLYLQMNSLRAEDTAVYYCAKTRYTPTASSLDYWGQGTLVTVSS VL: not shown"
7,51900,"CDRH3 library mutant VYYCAKTNYLPT (Fab, V domains shown) VH: EVQLVESGGGLVQPGRSLRLSCAASGFTFDDYAMHWVRQAPGKGLEWVSAITWNSGHIDYADSVEGRFTISRDNAKNSLYLQMNSLRAEDTAVYYCAKTNYLPTASSLDYWGQGTLVTVSS VL: not shown"
8,251000,"CDRH3 library mutant LYYCAKVKYLPT (Fab, V domains shown) VH: EVQLVESGGGLVQPGRSLRLSCAASGFTFDDYAMHWVRQAPGKGLEWVSAITWNSGHIDYADSVEGRFTISRDNAKNSLYLQMNSLRAEDTALYYCAKVKYLPTASSLDYWGQGTLVTVSS VL: not shown"
9,707000,"CDRH3 library mutant VYYCAKTRYLPT (Fab, V domains shown) VH: EVQLVESGGGLVQPGRSLRLSCAASGFTFDDYAMHWVRQAPGKGLEWVSAITWNSGHIDYADSVEGRFTISRDNAKNSLYLQMNSLRAEDTAVYYCAKTRYLPTASSLDYWGQGTLVTVSS VL: not shown"
10,100000,"CDRH3 library mutant VYYCAKTGYLPT (Fab, V domains shown) VH: EVQLVESGGGLVQPGRSLRLSCAASGFTFDDYAMHWVRQAPGKGLEWVSAITWNSGHIDYADSVEGRFTISRDNAKNSLYLQMNSLRAEDTAVYYCAKTGYLPTASSLDYWGQGTLVTVSS VL: not shown"
11,105000,"CDRH3 library mutant VYYCAKSKYLPT (Fab, V domains shown) VH: EVQLVESGGGLVQPGRSLRLSCAASGFTFDDYAMHWVRQAPGKGLEWVSAITWNSGHIDYADSVEGRFTISRDNAKNSLYLQMNSLRAEDTAVYYCAKSKYLPTASSLDYWGQGTLVTVSS VL: not shown"
12,97400,"CDRH3 library mutant LYYCAKTKYLPT (Fab, V domains shown) VH: EVQLVESGGGLVQPGRSLRLSCAASGFTFDDYAMHWVRQAPGKGLEWVSAITWNSGHIDYADSVEGRFTISRDNAKNSLYLQMNSLRAEDTALYYCAKTKYLPTASSLDYWGQGTLVTVSS VL: not shown"
13,54100,"CDRH3 library mutant LYYCAKTTYLPT (Fab, V domains shown) VH: EVQLVESGGGLVQPGRSLRLSCAASGFTFDDYAMHWVRQAPGKGLEWVSAITWNSGHIDYADSVEGRFTISRDNAKNSLYLQMNSLRAEDTALYYCAKTTYLPTASSLDYWGQGTLVTVSS VL: not shown"
14,59400,"CDRH3 library mutant LYYCAKTRYLPT (Fab, V domains shown) VH: EVQLVESGGGLVQPGRSLRLSCAASGFTFDDYAMHWVRQAPGKGLEWVSAITWNSGHIDYADSVEGRFTISRDNAKNSLYLQMNSLRAEDTALYYCAKTRYLPTASSLDYWGQGTLVTVSS VL: not shown"
15,62000,"CDRH3 library mutant VYYCAKVAYLPS (Fab, V domains shown) VH: EVQLVESGGGLVQPGRSLRLSCAASGFTFDDYAMHWVRQAPGKGLEWVSAITWNSGHIDYADSVEGRFTISRDNAKNSLYLQMNSLRAEDTAVYYCAKVAYLPSASSLDYWGQGTLVTVSS VL: not shown"
16,61200,"CDRH3 library mutant VYYCAKTHYLPT (Fab, V domains shown) VH: EVQLVESGGGLVQPGRSLRLSCAASGFTFDDYAMHWVRQAPGKGLEWVSAITWNSGHIDYADSVEGRFTISRDNAKNSLYLQMNSLRAEDTAVYYCAKTHYLPTASSLDYWGQGTLVTVSS VL: not shown"
17,1.06e+06,"CDRH3 library mutant VYYCAKTKYLPT (Fab, V domains shown) VH: EVQLVESGGGLVQPGRSLRLSCAASGFTFDDYAMHWVRQAPGKGLEWVSAITWNSGHIDYADSVEGRFTISRDNAKNSLYLQMNSLRAEDTAVYYCAKTKYLPTASSLDYWGQGTLVTVSS VL: not shown"
18,149000,"CDRH3 library mutant VYYCAKTTYLPS (Fab, V domains shown) VH: EVQLVESGGGLVQPGRSLRLSCAASGFTFDDYAMHWVRQAPGKGLEWVSAITWNSGHIDYADSVEGRFTISRDNAKNSLYLQMNSLRAEDTAVYYCAKTTYLPSASSLDYWGQGTLVTVSS VL: not shown"
19,371000,"CDRH3 library mutant VYYCAKTSYLPS (Fab, V domains shown) VH: EVQLVESGGGLVQPGRSLRLSCAASGFTFDDYAMHWVRQAPGKGLEWVSAITWNSGHIDYADSVEGRFTISRDNAKNSLYLQMNSLRAEDTAVYYCAKTSYLPSASSLDYWGQGTLVTVSS VL: not shown"
20,122000,"CDRH3 library mutant VYYCAKAHHLPT (Fab, V domains shown) VH: EVQLVESGGGLVQPGRSLRLSCAASGFTFDDYAMHWVRQAPGKGLEWVSAITWNSGHIDYADSVEGRFTISRDNAKNSLYLQMNSLRAEDTAVYYCAKAHHLPTASSLDYWGQGTLVTVSS VL: not shown"
21,87100,"CDRH3 library mutant VYYCAKTKYLPS (Fab, V domains shown) VH: EVQLVESGGGLVQPGRSLRLSCAASGFTFDDYAMHWVRQAPGKGLEWVSAITWNSGHIDYADSVEGRFTISRDNAKNSLYLQMNSLRAEDTAVYYCAKTKYLPSASSLDYWGQGTLVTVSS VL: not shown"
22,448000,"CDRH3 library mutant LYYCAKTNYLPT (Fab, V domains shown) VH: EVQLVESGGGLVQPGRSLRLSCAASGFTFDDYAMHWVRQAPGKGLEWVSAITWNSGHIDYADSVEGRFTISRDNAKNSLYLQMNSLRAEDTALYYCAKTNYLPTASSLDYWGQGTLVTVSS VL: not shown"
23,151000,"CDRH3 library mutant LYYCAKTTYLPS (Fab, V domains shown) VH: EVQLVESGGGLVQPGRSLRLSCAASGFTFDDYAMHWVRQAPGKGLEWVSAITWNSGHIDYADSVEGRFTISRDNAKNSLYLQMNSLRAEDTALYYCAKTTYLPSASSLDYWGQGTLVTVSS VL: not shown"
24,63500,"CDRH3 library mutant LYYCAKTRYLPS (Fab, V domains shown) VH: EVQLVESGGGLVQPGRSLRLSCAASGFTFDDYAMHWVRQAPGKGLEWVSAITWNSGHIDYADSVEGRFTISRDNAKNSLYLQMNSLRAEDTALYYCAKTRYLPSASSLDYWGQGTLVTVSS VL: not shown"
